In patent US20190225691A1 (SHANGHAI HENLIUS BIOTECH, published 2019):

What was measured:
human PD-L1 ECD-His [1] = target: T1, human PD-L1 ECD-His (human, UniProt Q9NZQ7 19-238); assay: SPR, ratio of KD to ref-1
T1 construct: extracellular domain; Analyte in all SPR and BLI runs; also called hPD-L1_ECD-His; hPD-L1 ECD-His; not shown: His tag
Method: (§1) The binding affinity and kinetics were measured using surface plasmon resonance (SPR). […] Experiments were carried out at 25° C., and measurements were made with serial dilutions of hPD-L1-His from 19.1 nM to 0.71 nM passing over the captured antibodies in HBS-P+buffer supplemented with 0.1% (w/v) BSA with a flow rate of 25 μL/min. All data were analyzed with the evaluation software and curves were fit with a 1:1 Langmuir binding model. All the data are representative of two independent studies performed in duplicate.

human PD-L1 ECD-His [2] = target: T1, human PD-L1 ECD-His; assay: SPR, 25 C, antibody captured by anti-human IgG Fc, hPD-L1-His analyte, 1:1 fit
Method: as §1

human PD-L1 ECD-His [3] = target: T1, human PD-L1 ECD-His; assay: SPR, ratio of KD to ref-1; remark: listed apart in the source
human PD-L1 ECD-His [4] = target: T1, human PD-L1 ECD-His; assay: SPR, hPD-L1-His, comparison of IgG isotypes of PL2#3
human PD-L1 ECD-His [5] = target: T1, human PD-L1 ECD-His; assay: BLI Octet RED96, biotinylated antibody on SA sensor, hPD-L1-His analyte, 1:1 fit
Method: (§2) Briefly, black 96-well plate was prepared with columns containing 200 μL/well of reagents required for determination of affinity. In general, Octet SA sensors were first placed in wells containing 1×Kinetics Buffer (PBS, 0.1% BSA, 0.02% Tween-20, pH 7.4) for 180 seconds to establish a baseline. […] Sensors were then regenerated by 3×5 second incubations in Regeneration Buffer (10 mM Glycine, pH 1.5) followed by a 5 second incubation in 1×Kinetics Buffer each time. Regeneration was repeated before measurement of each association/dissociation cycle. Sensors were then placed in fresh 1×Kinetics Buffer for 180 seconds to establish a baseline. Association was then measured by incubating the sensors for 5 minutes in wells containing hPD-L1-His followed by transferring to wells containing 1×Kinetics Buffer for 10 minutes to measure dissociation. Kinetics (ka, kd, and […] were measured by global fitting four association/dissociation cycles of data obtained from 1:3 serial dilutions of hPD-L1-His from 38.28 nM to 1.42 nM (one association/dissociation cycle for one concentration) with a 1:1 Langmuir binding model. All data were analyzed with Octet Data Analysis Software v.9.0 and representative of two independent experiments performed in duplicate.
(§3) All the data are representative of two independent experiments performed in duplicate.

[6] = target: T2, recombinant cynomolgus monkey PD-L1_ECD Fc-fusion protein (Sino Biological Inc.) (cynomolgus monkey, UniProt G7PSE7 19-238); assay: ELISA: cynomolgus monkey PD-L1_ECD/Fc coated (9 ng/well), peroxidase-labeled goat anti-human IgG F(ab)'2, TMB, OD450
T2 construct: Bought
Method: The recombinant cynomolgus monkey PD-L1_ECD Fc-fusion proteins were purchased from Sino Biological Inc. PD-L1_ECD/Fc (9 ng per well) were immobilized onto 96-well assay plat by incubating overnight at 4° C. Nonspecific binding sites were blocked using 5% skim milk in PBS for one hour at room temperature. After washing plates three times with PBST, indicated concentrations of anti-PD-L1 antibodies and HLX01 (negative control) were incubated with the immobilized proteins for one hour at room temperature. The plates were washed three times with PBST and then incubated for one hour at room temperature with peroxidase-labeled goat anti-human IgG F(ab)′2 (Jackson ImmunoResearch Laboratories) diluted 1/10,000 in PBS. After washing, plates were developed using TMB (eBioscience). The absorbance was read at the wavelength of 450 nm by Varioskan LUX microplate reader (Thermo Scientific).
HLX01 (anti-CD20 mAb) was used as the negative control.

human PD-L1 ECD-His [7] = target: T1, human PD-L1 ECD-His; assay: BLI, ratio of KD to ref-1
Method: as §2, §3

human PD-L1 ECD-His [8] = target: T1, human PD-L1 ECD-His; assay: SPR, 25 C, antibody captured by anti-human IgG Fc, hPD-L1_ECD-His analyte, 1:1 fit
Method: Experiments were carried out at 25° C., and measurements were made with serial dilutions of hPD-L1_ECD-His from 55.4 nM to 11.1 nM passing over the captured antibodies in HBS-P+ buffer supplemented with 0.1% (w/v) BSA with a flow rate of […]. All data were analyzed with the evaluation software and curves were fit with a 1:1 Langmuir binding model. Data are representative of two independent experiments performed in duplicate.

[9] = target: T3, human PD-L1 on cells (PHA-activated human T cells); PD-L1-transfected CHO-S cells; A375 melanoma cells; … (human, UniProt Q9NZQ7 19-290); assay: flow cytometry blocking assay: PD-L1 expressing CHO-S cells incubated with antibody, then biotin-labeled PD-1-Fc and streptavidin-PE; MFI of bound PD-1
T3 construct: whole, on cells; also called PD-L1 expressing T cells; PD-L1 expressing CHO-S cells
Method: PD-L1 expressing CHO-S cells were suspended in FACS buffer (PBS with 4% FBS). Various concentrations of tested antibodies were added to the cell suspension (3.5E5 cells/well) and incubated at 4° C. for 30 minutes. […] The cells were washed and then stained with streptavidin-PE at 4° C. for 30 minutes. Flow cytometric analyses were performed using the Cytomics FC 500 (Beckman Coulter Inc.).
Anti-PD-L1 reference antibody and Avastin were used as the positive and negative control, respectively.

[10] = target: T4, recombinant human PD-L1/Fc fusion protein (human, UniProt Q9NZQ7 19-238); assay: ELISA: human PD-L1/Fc coated (15 ng/well), serially diluted antibody, HRP-conjugated secondary antibody, TMB, A450
T4 construct: also called hPD-L1 ECD-Fc; not shown: Fc part
Method: ELISA assays were performed to assess the binding of selected antibodies to recombinant human PD-L1/Fc fusion proteins. Fifteen nanograms per well of human PD-L1/Fc proteins were coated on 96-well EIA microplate overnight at 4° C. After blocking with 5% skim milk, serially diluted antibodies were added and incubated at RT for 1 hour. The unbound antibodies were removed and wells were washed with PBST twice. The HRP-conjugated secondary antibody was added to the wells, and, following an incubation, excess secondary antibody was washed away. TMB was added to the wells, and following incubation, the reaction was stopped, and HRP activity was measured by monitoring the increase in absorbance at 450 nm.

T1 sequence (Q9NZQ7 19-238): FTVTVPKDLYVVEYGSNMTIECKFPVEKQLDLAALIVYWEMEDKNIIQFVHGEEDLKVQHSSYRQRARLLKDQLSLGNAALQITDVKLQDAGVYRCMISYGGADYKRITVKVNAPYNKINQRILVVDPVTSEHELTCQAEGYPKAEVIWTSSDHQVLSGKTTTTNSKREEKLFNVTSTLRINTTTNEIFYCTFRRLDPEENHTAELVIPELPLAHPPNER
T4 sequence (Q9NZQ7 19-238 limits assumed): as the sequence (Q9NZQ7 19-238) above
T2 sequence (G7PSE7 entry or part of it limits assumed): as the sequence (Q9NZQ7 19-238) above, with A33T, A34S, S62N, R68Q, Q82R, F173L, T185A, T192I, H215L counted along it
T3 sequence (Q9NZQ7 19-290): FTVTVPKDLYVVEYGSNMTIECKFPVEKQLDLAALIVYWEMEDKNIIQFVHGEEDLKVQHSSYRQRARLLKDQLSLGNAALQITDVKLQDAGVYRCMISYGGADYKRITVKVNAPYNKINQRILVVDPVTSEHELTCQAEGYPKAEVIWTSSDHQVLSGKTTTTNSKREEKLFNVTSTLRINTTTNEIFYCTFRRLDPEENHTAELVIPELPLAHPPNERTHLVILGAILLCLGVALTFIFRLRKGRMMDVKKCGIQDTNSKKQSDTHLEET

Row | Improvement over ref-1 (human PD-L1 ECD-His [1]) [fold] | Kd (human PD-L1 ECD-His [2]) [nM] | koff (human PD-L1 ECD-His [2]) [s⁻¹] | kon (human PD-L1 ECD-His [2]) [M⁻¹ s⁻¹] | Improvement over ref-1 (human PD-L1 ECD-His [3]) [fold] | Kd (human PD-L1 ECD-His [4]) [nM] | koff (human PD-L1 ECD-His [4]) [s⁻¹] | kon (human PD-L1 ECD-His [4]) [M⁻¹ s⁻¹] | also measured | Binder
1 | 1.21 | 6.96 | 0.00217 | 747000 |  |  |  |  |  | PL2 IgG2 (antibody, V domains shown) VH: EVQLVQSGGGLVKPGGSLRLSCAASGFTFSSYTMNWVRQAPGKGLEWVSSISSGSDYLYYADSVKGRFTISRDNAKNSLYLQMNSLRAEDTAVYYCARNELRWYPQAGAFDIWGQGTMVTVSS VL: QSVVTQPPSMSAAPGQNVTISCSGSSSYIESSYVSWYQQLPGTAPRLLIYDDDMRPSGIPDRFSGSKSGTSATLAITGLQTGDEADYYCEIWDSGLGGVFGGGTKLTVL
2 |  |  |  |  | 0.41 | 1.56 | 0.00193 | 1.25e+06 |  | PL2 IgG1 (antibody, V domains shown) VH: EVQLVQSGGGLVKPGGSLRLSCAASGFTFSSYTMNWVRQAPGKGLEWVSSISSGSDYLYYADSVKGRFTISRDNAKNSLYLQMNSLRAEDTAVYYCARNELRWYPQAGAFDIWGQGTMVTVSS VL: QSVVTQPPSMSAAPGQNVTISCSGSSSYIESSYVSWYQQLPGTAPRLLIYDDDMRPSGIPDRFSGSKSGTSATLAITGLQTGDEADYYCEIWDSGLGGVFGGGTKLTVL
3 | 16.3 | 0.516 | 0.000557 | 1.32e+06 | 5.36 | 0.118 | 0.000162 | 1.34e+06 |  | PL2#3 IgG2 (antibody, V domains shown, Human IgG2 backbone) VH: EVQLVQSGGGLVKPGGSLRLSCAASGFTFSSYTMNWVRQAPGKGLEWVSSISSGSDYLYYADSVKGRFTISRDNAKNSLYLQMNSLRAEDTAVYYCARNELRWYPQAGAFDRWGQGTMVTVSS VL: QSVVTQPPSMSAAPGQRVTISCSGSSSYIESSYVGWYQQLPGTAPRLLIYDDDMRPSGIPDRFSGSKSGTSATLAITGLQTGDEADYYCEIWRSGLGGVFGGGTKLTVL
4 | 2.74 | 3.07 | 0.00221 | 812000 |  |  |  |  |  | PL2#5 IgG2 (antibody, V domains shown, Human IgG2 backbone) VH: EVQLVQSGGGLVKPGGSLRLSCAASGFTFSSYTMNWVRQAPGKGLEWVSSISSGSDYLYYADSVKGRFTISRDNAKNSLYLQMNSLRAEDTAVYYCARNELRWYPFAGAFDIWGQGTMVTVSS VL: QSVVTQPPSMSAAPGQRVTISCSGSSSYIESSYVSWYQQLPGTAPRLLIYDDDMRPSGIPDRFSGSKSGTSATLAITGLQTGDEADYYCEIWDSRLGGVFGGGTKLTVL
5 |  |  |  |  | 2.64 | 0.239 | 0.000293 | 1.26e+06 |  | PL2#3 IgG4 (antibody, V domains shown, Human IgG4) VH: EVQLVQSGGGLVKPGGSLRLSCAASGFTFSSYTMNWVRQAPGKGLEWVSSISSGSDYLYYADSVKGRFTISRDNAKNSLYLQMNSLRAEDTAVYYCARNELRWYPQAGAFDRWGQGTMVTVSS VL: QSVVTQPPSMSAAPGQRVTISCSGSSSYIESSYVGWYQQLPGTAPRLLIYDDDMRPSGIPDRFSGSKSGTSATLAITGLQTGDEADYYCEIWRSGLGGVFGGGTKLTVL
6 | 10.8 | 0.779 | 0.00143 | 2.04e+06 |  |  |  |  |  | PL2#39 IgG2 (antibody, V domains shown, Human IgG2 backbone) VH: EVQLVQSGGGLVKPGGSLRLSCAASGFTFSSYTMNWVRQAPGKGLEWVSSISSGSDYLYYADSVKGRFTISRDNAKNSLYLQMNSLRAEDTAVYYCARNELRWYPKAGAFDIWGQGTMVTVSS VL: QSVVTQPPSMSAAPGQRVTISCSGSSSYITSSYVSWYQQLPGTAPRLLIYDDDMRPSGIPDRFSGSKSGTSATLAITGLQTGDEADYYCKIWDSGLGGVFGGGTKLTVL
7 |  |  |  |  | 2.53 | 0.25 | 0.000276 | 1.14e+06 |  | PL2#3 IgG1 (antibody, V domains shown, Human IgG1) VH: EVQLVQSGGGLVKPGGSLRLSCAASGFTFSSYTMNWVRQAPGKGLEWVSSISSGSDYLYYADSVKGRFTISRDNAKNSLYLQMNSLRAEDTAVYYCARNELRWYPQAGAFDRWGQGTMVTVSS VL: QSVVTQPPSMSAAPGQRVTISCSGSSSYIESSYVGWYQQLPGTAPRLLIYDDDMRPSGIPDRFSGSKSGTSATLAITGLQTGDEADYYCEIWRSGLGGVFGGGTKLTVL
8 | 6.62 | 1.27 | 0.00099 | 882000 |  |  |  |  |  | PL2#4 IgG2 (antibody, V domains shown, Human IgG2 backbone) VH: EVQLVQSGGGLVKPGGSLRLSCAASGFTFSSYTMNWVRQAPGKGLEWVSSISSGSDYLYYADSVKGRFTISRDNAKNSLYLQMNSLRAEDTAVYYCARNELRWYPLAGAFDIWGQGTMVTVSS VL: QSVVTQPPSMSAAPGQRVTISCSGVSSYIESSYVSWYQQLPGTAPRLLIYDDDMRPSGIPDRFSGSKSGTSATLAITGLQTGDEADYYCKIWDSGLGGVFGGGTKLTVL
9 |  |  |  |  |  |  |  |  | Kd (human PD-L1 ECD-His [5]): 1.09 nM; koff (human PD-L1 ECD-His [5]): 0.000305 s⁻¹; kon (human PD-L1 ECD-His [5]): 298000 M⁻¹ s⁻¹; EC50 (read off the curve) [6]: ~0.04 µg/mL; Improvement over ref-1 (human PD-L1 ECD-His [7]): 2.26 fold | PL3#7 mtIgG1 (antibody, V domains shown, Antibody was biotinylated (NHS-PEG4-biotin, sites not specified) for the Octet assay of Table 11., N297A mutant human IgG1) VH: QVQLVQSGAEVKKPGSSVKVSCKASGGTFSSYPISWVRQAPGQGLEWIGRIIPILGIANYAQKFQGRVTITADKSTSTAYMELSSLRSEDTAVYYCARSRDGYAFGAFDIWGQGTLVTVSS VL: QSVVTQPPPVSGAPGQRVTISCTGSSSNIGAGYDVHWYQQLPGTAPKLLIYGNSNRPSGVPDRFSGSKSGTSASLAITGLQAEDEADYYCQTYDSSLSARVVFGGGTKLTVLG
10 |  |  |  |  |  |  |  |  | Kd (human PD-L1 ECD-His [8]): 15.8 nM; koff (human PD-L1 ECD-His [8]): 0.00453 s⁻¹; kon (human PD-L1 ECD-His [8]): 291000 M⁻¹ s⁻¹; IC50 (read off the curve) [9]: ~0.02 µg/mL; EC50 (read off the curve) [10]: ~0.004 µg/mL | PL1 (full-length, N297A mutant human IgG1) (antibody, V domains shown) VH: QIQLVQSGAEVKKPGSSVKVSCKASGGTFSSYAISWVRQAPGQGLEWMGRIIPILGIANYAQKFQGRVTITAGESTSTAYMELSSLRSEDTAVYYCAREGSSGWLGVLDYWGQGTLVTVSS VL: QAVLTQPSSVSGAPGQRVTISCTGSSSNVGAGYDVHWYQQLPGTAPKLLIYGNSNRPSGVPDRFSGSKSGTSASLAITGLQAEDEADYYCQSYDSSLSGWVFGGGTKLTVLG
